Measured values as given in paper PMC5993538, “The plant-specific transcription factors CBP60g and SARD1 are targeted by a Verticillium secretory protein VdSCP41 to modulate immunity”.

Target: T1, GST-CBP60g (Arabidopsis thaliana, UniProt F4K2R6 1-563)
T1 sequence: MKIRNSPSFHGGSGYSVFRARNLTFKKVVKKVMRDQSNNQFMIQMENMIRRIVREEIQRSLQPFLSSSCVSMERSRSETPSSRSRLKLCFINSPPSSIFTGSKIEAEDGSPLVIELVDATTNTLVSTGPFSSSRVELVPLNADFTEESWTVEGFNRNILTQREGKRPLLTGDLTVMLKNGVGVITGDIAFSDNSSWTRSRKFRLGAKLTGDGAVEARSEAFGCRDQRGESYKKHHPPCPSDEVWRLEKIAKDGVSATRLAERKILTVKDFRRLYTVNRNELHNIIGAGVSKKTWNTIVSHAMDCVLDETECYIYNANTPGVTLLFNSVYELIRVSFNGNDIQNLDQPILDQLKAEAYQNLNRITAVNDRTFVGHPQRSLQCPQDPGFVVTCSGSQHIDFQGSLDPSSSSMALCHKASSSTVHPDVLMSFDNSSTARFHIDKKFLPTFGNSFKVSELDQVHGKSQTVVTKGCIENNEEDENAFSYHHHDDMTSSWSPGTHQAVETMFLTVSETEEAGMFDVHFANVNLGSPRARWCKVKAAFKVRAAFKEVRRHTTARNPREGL
Test: EMSA; no effector; signal reduced by 150x unlabeled probe; 10 mM Tris-HCl pH 7.5, 50 mM KCl, 1 mM DTT, 50 ng poly[dI-dC], 20 ul, room temperature 30 min; 2 fmol probe, 4 ug GST-CBP60g; 5% native PAGE
Settings: protein: recombinant; tags: N-terminal GST (pGEX-6p-1); label: 32P (5' end, T4 PNK); blunt

B1: ICS1 promoter 60-bp probe (dsDNA)
DNA 1: TGTGTAATTTGGTGGTTATTTCATAGAAATTTTGGGGAAATTGTTGCACCTCTCCACTCT
DNA 2: AGAGTGGAGAGGTGCAACAATTTCCCCAAAATTTCTATGAAATAACCACCAAATTACACA
- binding result: binds
